Measurements taken from article PMC10602924.

B1: VEGFA 3'UTR WT RNA (ssRNA)
RNA: UGAGCCGGGCAGGAGGAAGGAGCCUCCCUCAGGGUUUCGGGAACCAGAUCUCUCACCAGGAAAGACUGA

How the values were obtained:
Assay in all cases: EMSA
SerRS WT = SerRS WT (human, UniProt P49591 1-514)
SerRS deltaUNE-S = SerRS deltaUNE-S (human, UniProt P49591 1-469)
SerRS T429A = SerRS T429A (human, UniProt P49591 1-514, T429A)
Chain of SerRS T429A (P49591 whole entry T429A): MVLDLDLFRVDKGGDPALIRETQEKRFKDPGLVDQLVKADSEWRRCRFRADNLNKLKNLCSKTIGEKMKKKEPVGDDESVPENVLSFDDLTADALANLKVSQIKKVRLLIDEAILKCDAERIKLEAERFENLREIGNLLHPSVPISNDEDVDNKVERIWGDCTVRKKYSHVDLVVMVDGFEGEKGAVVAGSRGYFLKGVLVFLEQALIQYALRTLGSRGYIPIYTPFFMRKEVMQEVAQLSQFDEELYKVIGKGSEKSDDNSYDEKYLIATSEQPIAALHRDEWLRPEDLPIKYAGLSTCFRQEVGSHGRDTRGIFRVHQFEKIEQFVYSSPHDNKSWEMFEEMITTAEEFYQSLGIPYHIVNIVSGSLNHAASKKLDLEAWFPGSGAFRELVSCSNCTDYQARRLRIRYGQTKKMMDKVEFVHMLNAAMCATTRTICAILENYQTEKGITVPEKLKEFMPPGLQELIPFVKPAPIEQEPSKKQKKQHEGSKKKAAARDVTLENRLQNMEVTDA

Chain of SerRS WT (P49591 whole entry): as the sequence (P49591 whole entry T429A) above, with A429T counted along it
Chain of SerRS deltaUNE-S (P49591 1-469, stated change not applied): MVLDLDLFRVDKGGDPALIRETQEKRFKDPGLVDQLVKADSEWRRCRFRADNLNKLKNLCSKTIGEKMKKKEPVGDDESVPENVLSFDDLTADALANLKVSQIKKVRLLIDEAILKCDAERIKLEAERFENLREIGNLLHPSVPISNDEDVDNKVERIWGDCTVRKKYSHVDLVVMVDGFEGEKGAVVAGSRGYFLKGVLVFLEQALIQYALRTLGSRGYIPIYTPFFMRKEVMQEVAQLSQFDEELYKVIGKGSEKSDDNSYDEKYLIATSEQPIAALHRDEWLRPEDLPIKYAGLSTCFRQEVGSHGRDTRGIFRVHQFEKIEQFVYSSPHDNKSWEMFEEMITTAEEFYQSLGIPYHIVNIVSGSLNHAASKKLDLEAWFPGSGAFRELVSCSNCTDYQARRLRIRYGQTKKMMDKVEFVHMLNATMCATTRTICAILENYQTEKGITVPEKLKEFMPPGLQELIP

Binder	binding result (SerRS WT)	binding result (SerRS deltaUNE-S)	binding result (SerRS T429A)
B1	binds	no binding	binds
UCAAAUGGAGCACCUGUUCCAUAUGUACGA (ssRNA) [MSH2 S612X RNA]	binds		
